Assay results published in publication PMC8367383, “A CTP-dependent gating mechanism enables ParB spreading on DNA” (eLife, 2021).
Changes are numbered by the printed parent chain. In names and notes the source's numbering stands. Blank lines part the entries; values can stand above or below the molecule they belong to.

Tests used:
CTP = test: membrane-spotting assay (DRaCALA); settings: highest protein concentration point (about 12.5 µM on x axis); 5 nM radiolabeled CTP α-P32, 30 µM unlabeled CTP, 1.5 µM 22 bp parS DNA; parent: est. 13; read off a plot
[1] = target: T1, C. crescentus ParB (WT); ParB-His6 (Caulobacter vibrioides, UniProt B8GW30); test: EnzChek inorganic phosphate release; assay type: biochemical; settings: 0-1000 uM CTP, 1 uM ParB, 0.5 uM 22 bp parS DNA; Mg2+, pH 8.0, 25 C; rates only in figure
T1 construct: full length, C-terminal His6 (pET21b), made in E. coli; dimer

[2] = target: T2, C. crescentus ParB (WT); ParB-His6 (Caulobacter vibrioides, UniProt B8GW30, E102A); test: DRaCALA membrane-spotting; assay type: binding; settings: labelled compound (5 nM 32P-alpha-CTP with 30 uM unlabelled CTP); 1.5 uM 22 bp parS DNA; 10 mM CaCl2, pH 8.0, room temperature
T2 construct: full length, C-terminal His6 (pET21b), made in E. coli; dimer

[3] = target: C. crescentus ParB (L224C I304C), dual-cysteine variant (C. crescentus) (UniProt B8GW30); test: cross-linking; BMOE double crosslinking of 8 µM dual-cysteine ParB variant ± 0.5 µM DNA (22 bp parS, circular 3 kb parS or scrambled parS plasmid) ± 1 mM CTP; denaturing polyacrylamide and agarose gels; post-treatment with Benzonase or TEV protease; protein released from gel slices of the HMW smear
[4] = target: the molecule itself; test: cross-linking; BMOE (1 mM) crosslinking of symmetry-related cysteines; 8 µM single-cysteine ParB variant ± 0.5 µM 22 bp parS DNA ± CTP (0-1000 µM); 10 mM Tris-HCl pH 7.4, 100 mM NaCl, 1 mM MgCl2; 5 min at room temperature; denaturing polyacrylamide gel
ParB∆CTD-His6 = target: T3, ParB∆CTD-His6 (Caulobacter crescentus, UniProt B8GW30 11-254); test: crystal structure; no nucleotide; BLI: 100 mM Tris-HCl pH 8.0, 100 mM NaCl, 1 mM MgCl2, 0.005% Tween 20, 22 °C, 1 µM ParB dimer (5 µM for Q35C); crosslinking: 8 µM ParB, 0.5 µM DNA, ±1 mM CTP; settings: protein: recombinant; tags: C-terminal His6; chain copies: 2; blunt, self-complementary palindrome
T3 sequence: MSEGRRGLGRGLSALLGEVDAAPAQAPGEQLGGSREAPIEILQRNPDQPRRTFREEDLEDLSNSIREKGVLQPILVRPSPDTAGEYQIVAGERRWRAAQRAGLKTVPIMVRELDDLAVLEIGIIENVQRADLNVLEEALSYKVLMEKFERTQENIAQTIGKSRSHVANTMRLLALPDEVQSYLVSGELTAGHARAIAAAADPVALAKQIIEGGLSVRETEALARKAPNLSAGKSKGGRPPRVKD

T2 sequence (B8GW30 whole entry E102A): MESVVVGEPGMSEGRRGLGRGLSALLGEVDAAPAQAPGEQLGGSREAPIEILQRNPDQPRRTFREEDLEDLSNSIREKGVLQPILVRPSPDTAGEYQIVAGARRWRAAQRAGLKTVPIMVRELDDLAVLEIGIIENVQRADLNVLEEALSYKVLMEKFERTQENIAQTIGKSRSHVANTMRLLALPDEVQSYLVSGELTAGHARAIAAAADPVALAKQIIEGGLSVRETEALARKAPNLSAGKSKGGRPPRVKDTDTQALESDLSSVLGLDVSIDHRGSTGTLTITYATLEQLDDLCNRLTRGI
T1 sequence (B8GW30 whole entry): as the sequence (B8GW30 whole entry E102A) above, with A102E counted along it

Molecule: C. crescentus ParB (WT) E102A
- response (CTP): 24%

Molecule: C. crescentus ParB (WT) R104A
- response (CTP): 0%

Molecule: Nc1ccn([C@@H]2O[C@H](COP(=O)(O)OP(=O)(O)OP(=O)(O)O)[C@@H](O)[C@H]2O)c(=O)n1 [CTP]
- EnzChek inorganic phosphate release [1]: The CTPase rates were measured at increasing concentration of CTP
- DRaCALA membrane-spotting [2]: ParB (E102A) did not hydrolyze CTP (Figure 6B) but nevertheless bound CTP efficiently

Molecule: C. crescentus ParB (WT) S74A
- response (CTP): 0.5%

B1: C. crescentus ParB (Q35C) on a cysteine-less ParB (C297S) background (natural protein, UniProt B8GW30 1-304, looked up)
chain: MESVVVGEPGMSEGRRGLGRGLSALLGEVDAAPACAPGEQLGGSREAPIEILQRNPDQPRRTFREEDLEDLSNSIREKGVLQPILVRPSPDTAGEYQIVAGERRWRAAQRAGLKTVPIMVRELDDLAVLEIGIIENVQRADLNVLEEALSYKVLMEKFERTQENIAQTIGKSRSHVANTMRLLALPDEVQSYLVSGELTAGHARAIAAAADPVALAKQIIEGGLSVRETEALARKAPNLSAGKSKGGRPPRVKDTDTQALESDLSSVLGLDVSIDHRGSTGTLTITYATLEQLDDLSNRLTRGI
notes: ParB, Caulobacter crescentus, with the stated substitutions; pET21b construct, so probably made in E. coli; source: purified (HIS-Select Cobalt gravity flow column, PD-10)
- binding result [4]: binds

B2: C. crescentus ParB (I304C) on a cysteine-less ParB (C297S) background (natural protein, UniProt B8GW30 1-304, looked up)
chain: B1 chain with C35Q, I304C
notes: as for B1
- binding result [4]: binds

B3: C. crescentus ParB (L224C) on a cysteine-less ParB (C297S) background (natural protein, UniProt B8GW30 1-304, looked up)
chain: B1 chain with C35Q, L224C
notes: as for B1
- binding result [4]: binds

B4: 22 bp parS (dsDNA)
DNA 1: GGATGTTTCACGTGAAACATCC
DNA 2: GGATGTTTCACGTGAAACATCC
- binding result (ParB∆CTD-His6): binds

Further lines, results first:

- response (CTP): 1.5%
Molecule: C. crescentus ParB (WT) R139A

- response (CTP): 15%
Molecule: C. crescentus ParB (WT) Q82A

- response (CTP): 3.5%
Molecule: C. crescentus ParB (WT) G79S

- response (CTP): 0.7%
Molecule: C. crescentus ParB (WT) R60A

- response (CTP): 10%
Molecule: C. crescentus ParB (WT) Q58A

- response (CTP): 26%
Molecule: C. crescentus ParB (WT) E135A

- stoichiometry N [3]: 2
Molecule: C. crescentus ParB (L224C I304C), dual-cysteine variant (from UniProt B8GW30 1-304)

- response (CTP): 0.7%
Molecule: C. crescentus ParB (WT) N136A
